From US20060259987A1 (UNIVERSITY OF UTAH RESEARCH FOUNDATION, published 2006)
Residue numbers refer to the chain shown, from its start. Names and notes keep the numbering of the source.

Experiments:
thrombin [1] = molecular target: T1, thrombin (human, UniProt P00734 328-622); experiment: thrombin +hep: pseudo-first-order loss of chromogenic activity with heparin
Method: (§1) Polybrene was added with the chromogenic substrate to quench the heparin dependent reaction. The observed pseudo-first-order rate constants were calculated for each heparin (1 nM-5 nM) concentration from the slope of the log of residual proteinase activity vs. time. This was plotted against the heparin concentration to calculate the second-order rate constant for the inhibition by the heparin-ATIII complex, (Kₕₑₚ) from the equation Kobs=Kₕₑₚ[H]ₒ([AT]ₒ/[AT]ₒ+Kd)+Kuncat[AT]ₒ

factor Xa [2] = molecular target: T2, factor Xa (human, UniProt P00742 41-179; P00742 235-488, limits assumed); experiment: Kapp fXa/prog relative to plasma.at3
T2 construct: also called fXa; human factor Xa
T2 sequence (P00742 41-179 limits assumed, chain 1 of 2): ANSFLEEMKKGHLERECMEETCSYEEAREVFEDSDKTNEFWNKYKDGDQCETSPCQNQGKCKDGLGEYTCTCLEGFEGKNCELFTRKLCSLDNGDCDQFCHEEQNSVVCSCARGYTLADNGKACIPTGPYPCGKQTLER
T2 sequence (P00742 235-488 limits assumed, chain 2 of 2): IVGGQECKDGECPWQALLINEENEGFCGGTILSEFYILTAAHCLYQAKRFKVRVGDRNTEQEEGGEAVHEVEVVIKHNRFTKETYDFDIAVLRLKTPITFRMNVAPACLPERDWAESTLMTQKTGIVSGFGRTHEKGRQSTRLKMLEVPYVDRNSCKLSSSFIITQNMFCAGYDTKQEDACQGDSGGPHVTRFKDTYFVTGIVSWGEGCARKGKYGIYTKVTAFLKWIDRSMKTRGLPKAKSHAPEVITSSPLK

thrombin [3] = molecular target: T1, thrombin; experiment: Kapp IIa/hep relative to plasma.at3
factor Xa [4] = molecular target: T2, factor Xa; experiment: factor Xa prog: pseudo-first-order loss of chromogenic activity, no heparin, 25 C
Method: (§2) Polybrene was added with the chromogenic substrate to quench the heparin dependent reaction. […] This was plotted against the heparin concentration to calculate the second-order rate constant for the inhibition by the heparin-ATIII complex, (Kₕₑₚ) from the equation Kobs=Kₕₑₚ[H]ₒ([AT]ₒ/[AT]ₒ+Kd)+Kuncat[AT]ₒ

factor Xa [5] = molecular target: T2, factor Xa; experiment: Kapp fXa/hep relative to plasma.at3
thrombin [6] = molecular target: T1, thrombin; experiment: Kapp IIa/prog relative to plasma.at3
thrombin [7] = molecular target: T1, thrombin; experiment: thrombin prog: pseudo-first-order loss of chromogenic activity, no heparin, 25 C
Method: as §2

thrombin [8] = molecular target: T1, thrombin; experiment: cell-based or functional assay
factor Xa [9] = molecular target: T2, factor Xa; experiment: cell-based or functional assay
factor Xa [10] = molecular target: T2, factor Xa; experiment: factor Xa +hep: pseudo-first-order loss of chromogenic activity with heparin
Method: as §1

human factor Xa [11] = molecular target: T3, human factor Xa (human, UniProt P00742 41-179; P00742 235-488, limits assumed); experiment: residual enzyme activity against time, pseudo-first-order, progressive (no heparin)
T3 construct: the active enzyme is a two-chain form of it; also called fXa

[12] = molecular target: T4, human neutrophil elastase (human, UniProt P08246 30-247, limits assumed); experiment: cell-based or functional assay
T4 sequence (looked up): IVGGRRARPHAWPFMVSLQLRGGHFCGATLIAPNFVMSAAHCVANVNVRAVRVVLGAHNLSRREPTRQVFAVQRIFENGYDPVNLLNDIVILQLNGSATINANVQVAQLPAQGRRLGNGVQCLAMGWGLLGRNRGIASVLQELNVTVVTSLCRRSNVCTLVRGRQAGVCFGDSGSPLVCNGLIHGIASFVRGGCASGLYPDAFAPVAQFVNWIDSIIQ

human factor Xa [13] = molecular target: T3, human factor Xa; experiment: cell-based or functional assay
human thrombin [14] = molecular target: T5, human thrombin (human, UniProt P00734 328-622); experiment: cell-based or functional assay
[15] = molecular target: T6, human neutrophil cathepsin G (human, UniProt P08311 21-244); experiment: cell-based or functional assay
T6 sequence (looked up): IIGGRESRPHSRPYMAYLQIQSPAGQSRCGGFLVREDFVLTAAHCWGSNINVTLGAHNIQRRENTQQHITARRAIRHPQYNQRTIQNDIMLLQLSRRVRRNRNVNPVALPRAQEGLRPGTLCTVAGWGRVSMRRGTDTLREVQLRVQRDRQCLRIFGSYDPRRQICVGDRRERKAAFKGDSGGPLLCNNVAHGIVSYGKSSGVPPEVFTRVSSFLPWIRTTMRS

human thrombin [16] = molecular target: T5, human thrombin; experiment: residual enzyme activity against time, pseudo-first-order, progressive (no heparin)
human thrombin [17] = molecular target: T5, human thrombin; experiment: thrombin inhibition rate in the absence of heparin
human factor Xa [18] = molecular target: T3, human factor Xa; experiment: residual enzyme activity against time, pseudo-first-order, with heparin
Method: as §1

human thrombin [19] = molecular target: T5, human thrombin; experiment: thrombin inhibition rate in the presence of heparin (HAH)
[20] = molecular target: T4, human neutrophil elastase; experiment: cell-based or functional assay; remark: listed apart in the source
factor Xa [21] = molecular target: T7, factor Xa (human, UniProt P00742 41-179; P00742 235-488, limits assumed); experiment: heparin cofactor assay, HCA expt #3; ATIII titrated on 10 nM fXa + 50 ug/ml UFH, chromogenic readout
T7 construct: Active factor Xa has a light and a heavy chain; also called fXa
Method: (§3) After 3 minutes, the reactions were quenched with polybrene and chromogenic substrate S2238 (thrombin) or S2765 (fXa), and the initial rate of chromophore production (405 nm) recorded to obtain a measurement residual, uninhibited thrombin or factor Xa. IC50s were determined from plots of ATIII concentration vs. percent residual target enzyme activity.
T7 sequence (P00742 41-179 limits assumed, form in doubt, chain 1 of 2): as the sequence (P00742 41-179 limits assumed, chain 1 of 2) above
T7 sequence (P00742 235-488 limits assumed, form in doubt, chain 2 of 2): as the sequence (P00742 235-488 limits assumed, chain 2 of 2) above

thrombin [22] = molecular target: T8, thrombin (human, UniProt P00734 328-622); experiment: heparin cofactor assay, HCA expt #2; ATIII titrated on 10 nM thrombin + 50 ug/ml UFH, chromogenic readout
Method: as §3

factor Xa [23] = molecular target: T7, factor Xa; experiment: heparin cofactor assay, HCA expt #2; ATIII titrated on 10 nM fXa + 50 ug/ml UFH, chromogenic readout
Method: as §3

thrombin [24] = molecular target: T8, thrombin; experiment: cell-based or functional assay; remark: listed apart in the source
factor Xa [25] = molecular target: T7, factor Xa; experiment: cell-based or functional assay; remark: listed apart in the source
thrombin [26] = molecular target: T8, thrombin; experiment: heparin cofactor assay, HCA expt #3; ATIII titrated on 10 nM thrombin + 50 ug/ml UFH, chromogenic readout
Method: as §3

T3 sequence (P00742 41-179 limits assumed, chain 1 of 2): as the sequence (P00742 41-179 limits assumed, chain 1 of 2) above
T3 sequence (P00742 235-488 limits assumed, chain 2 of 2): as the sequence (P00742 235-488 limits assumed, chain 2 of 2) above

B1: LEAI.474 (other)
chain: SPVDICTAKPRDIPMNPMCIYRSPEKKATEDEGSEQKIPEATNRRVWELSKANSRFATTFYQHLADSKNDNDNIFLSPLSISTAFAMTKLGACNDTLQQLMEVFKFDTISEKTSDQIHFFFAKLNCRLYRKANKASKLVSANRLFGDKSLTFNETYQDISELVYGAKLQPLDFKENAEQSRAAINKWVSNKTEGRITDVIPSEAINELTVLVLVNTIYFKGLWKSKFSPENTRKELFYKADGESCSASMMYQEGKFRYRRVAEGTQVLELPFKGDDITMVLILPKPEKSLAKVEKELTPEVLQEWLDELEEMMLVVHMPRFRIEDGFSLKEQLQDMGLVDLFSPEKSKLPGIVAEGRDDLYVSDAFHKAFLEVNEEGSEAAASTALEAQGRSLNPNRVTFKANRPFLVFIREVPLNTIIFMGRVANPCVK
notes: also called DES.LEAI.474
kapp (apparent second-order inhibition rate constant) (thrombin [1]): 2.01e+06 M⁻¹ s⁻¹ | Kapp as a percentage of the plasma ATIII value (factor Xa [2]): 510% | Kapp as a percentage of the plasma ATIII value (thrombin [3]): 34% | kapp (apparent second-order inhibition rate constant) (factor Xa [4]): 10700 M⁻¹ s⁻¹ | Kapp as a percentage of the plasma ATIII value (factor Xa [5]): 217% | Kapp as a percentage of the plasma ATIII value (thrombin [6]): 38% | kapp (apparent second-order inhibition rate constant) (thrombin [7]): 2680 M⁻¹ s⁻¹ | IC50 IIa/UFH; HCA #2 (thrombin [8]): 0.065 µM | IC50 IIa/UFH; HCA #3 (thrombin [8]): 0.047 µM | IC50 IIa/UFH; HCA #4 (thrombin [8]): 0.05 µM | rsd. IIa catG; CA #12; stg1 conc 200 (thrombin [8]): 1% | rsd. IIa catG; CA #14; stg1 conc 200 (thrombin [8]): 1% | rsd. IIa catG; CA #15; stg1 conc 200 (thrombin [8]): 1% | rsd. IIa hne; CA #14; stg1 conc 200 (thrombin [8]): 2% | rsd. IIa hne; CA #15; stg1 conc 200 (thrombin [8]): 6% | rsd. IIa no add; CA #14; stg1 conc 200 (thrombin [8]): 2% | rsd. IIa no add; CA #15; stg1 conc 200 (thrombin [8]): 0% | IC50 fXa/UFH; HCA #2 (factor Xa [9]): 0.02 µM | IC50 fXa/UFH; HCA #3 (factor Xa [9]): 0.016 µM | IC50 fXa/UFH; HCA #4 (factor Xa [9]): 0.013 µM | rsd. Xa catG; CA #12; stg1 conc 200 (factor Xa [9]): 1% | rsd. Xa catG; CA #14; stg1 conc 200 (factor Xa [9]): 1% | rsd. Xa catG; CA #15; stg1 conc 200 (factor Xa [9]): 0% | rsd. Xa hne; CA #14; stg1 conc 200 (factor Xa [9]): 1% | rsd. Xa hne; CA #15; stg1 conc 200 (factor Xa [9]): 1% | rsd. Xa no add; CA #14; stg1 conc 200 (factor Xa [9]): 2% | rsd. Xa no add; CA #15; stg1 conc 200 (factor Xa [9]): 0% | kapp (apparent second-order inhibition rate constant) (factor Xa [10]): 1.25e+06 M⁻¹ s⁻¹

B2: LEAI.474 (other)
chain: B1 chain
notes: Recombinant human ATIII variant made in Drosophila S2 cells on the S137A background; also called DES.LEAI.474; LEAQ parent
kapp (apparent second-order inhibition rate constant) (human factor Xa [11]): 10700 M⁻¹ s⁻¹ | rsd IIa, HNE (CA #51, stg 1 conc 200) [12]: 2% | rsd IIa, HNE (CA #52, stg 1 conc 200) [12]: 3% | rsd Xa, HNE (CA #51, stg 1 conc 200) [12]: -3% | rsd Xa, HNE (CA #52, stg 1 conc 200) [12]: 3% | IC50 fXa/UFH (HCA #5) (human factor Xa [13]): 0.023 µM | IC50 fXa/UFH (HCA #6) (human factor Xa [13]): 0.033 µM | IC50 fXa/UFH; HCA #2 (human factor Xa [13]): 0.02 µM | IC50 fXa/UFH; HCA #3 (human factor Xa [13]): 0.016 µM | IC50 fXa/UFH; HCA #4 (human factor Xa [13]): 0.013 µM | rsd Xa, no add (CA #51, stg 1 conc 200) (human factor Xa [13]): -1% | rsd Xa, no add (CA #52, stg 1 conc 200) (human factor Xa [13]): 2% | IC50 IIa/UFH (HCA #5) (human thrombin [14]): 0.065 µM | IC50 IIa/UFH (HCA #6) (human thrombin [14]): 0.055 µM | IC50 IIa/UFH; HCA #2 (human thrombin [14]): 0.065 µM | IC50 IIa/UFH; HCA #3 (human thrombin [14]): 0.047 µM | IC50 IIa/UFH; HCA #4 (human thrombin [14]): 0.05 µM | rsd IIa, no add (CA #51, stg 1 conc 200) (human thrombin [14]): 2% | rsd IIa, no add (CA #52, stg 1 conc 200) (human thrombin [14]): 4% | rsd IIa, catG (CA #51, stg 1 conc 200) [15]: 2% | rsd IIa, catG (CA #52, stg 1 conc 200) [15]: 3% | rsd Xa, catG (CA #51, stg 1 conc 200) [15]: -2% | rsd Xa, catG (CA #52, stg 1 conc 200) [15]: 1% | kapp (apparent second-order inhibition rate constant) (human thrombin [16]): 2680 M⁻¹ s⁻¹ | Kapp, thrombin progressive (human thrombin [17]): 2700 M⁻¹ s⁻¹ | kapp (apparent second-order inhibition rate constant) (human factor Xa [18]): 1.25e+06 M⁻¹ s⁻¹ | Kapp, thrombin HAH (human thrombin [19]): 2e+06 M⁻¹ s⁻¹ | halflife, min (HNE/hep) [20]: 38.4 min

B3: 7EVEA.451 (other)
chain: B1 chain with A385E, L386V, A388I, Q389A
modifications: N-linked glycans added by Drosophila S2 cells; not carried by the letters
notes: Made in Drosophila S2 cells (DES) on the S137A background; N-terminus printed as SPVDI---
IC50 (factor Xa [21]): 0.05 µM | IC50 (thrombin [22]): 0.4 µM | IC50 (factor Xa [23]): 0.038 µM | Rsd. IIa No add; CA expt #8; stg1 conc 200 (thrombin [24]): 6 % of activity without ATIII | rsd. IIa catG; CA expt #8; stg1 conc 200 (thrombin [24]): 7 % of activity without ATIII | rsd. IIa hne; CA expt #8; stg1 conc 200 (thrombin [24]): 12 % of activity without ATIII | rsd. Xa catG; CA expt #8; stg1 conc 200 (factor Xa [25]): 1 % of activity without ATIII | rsd. Xa hne; CA expt #8; stg1 conc 200 (factor Xa [25]): 1 % of activity without ATIII | rsd. Xa no add; CA expt #8; stg1 conc 200 (factor Xa [25]): 1 % of activity without ATIII | IC50 (thrombin [26]): 0.45 µM
